Test results: publication PMC5499591 (Nucleic Acids Research, 2017)

T1: GST-p180 (budding yeast (S. cerevisiae), UniProt P13382 1-1468)
T1 sequence: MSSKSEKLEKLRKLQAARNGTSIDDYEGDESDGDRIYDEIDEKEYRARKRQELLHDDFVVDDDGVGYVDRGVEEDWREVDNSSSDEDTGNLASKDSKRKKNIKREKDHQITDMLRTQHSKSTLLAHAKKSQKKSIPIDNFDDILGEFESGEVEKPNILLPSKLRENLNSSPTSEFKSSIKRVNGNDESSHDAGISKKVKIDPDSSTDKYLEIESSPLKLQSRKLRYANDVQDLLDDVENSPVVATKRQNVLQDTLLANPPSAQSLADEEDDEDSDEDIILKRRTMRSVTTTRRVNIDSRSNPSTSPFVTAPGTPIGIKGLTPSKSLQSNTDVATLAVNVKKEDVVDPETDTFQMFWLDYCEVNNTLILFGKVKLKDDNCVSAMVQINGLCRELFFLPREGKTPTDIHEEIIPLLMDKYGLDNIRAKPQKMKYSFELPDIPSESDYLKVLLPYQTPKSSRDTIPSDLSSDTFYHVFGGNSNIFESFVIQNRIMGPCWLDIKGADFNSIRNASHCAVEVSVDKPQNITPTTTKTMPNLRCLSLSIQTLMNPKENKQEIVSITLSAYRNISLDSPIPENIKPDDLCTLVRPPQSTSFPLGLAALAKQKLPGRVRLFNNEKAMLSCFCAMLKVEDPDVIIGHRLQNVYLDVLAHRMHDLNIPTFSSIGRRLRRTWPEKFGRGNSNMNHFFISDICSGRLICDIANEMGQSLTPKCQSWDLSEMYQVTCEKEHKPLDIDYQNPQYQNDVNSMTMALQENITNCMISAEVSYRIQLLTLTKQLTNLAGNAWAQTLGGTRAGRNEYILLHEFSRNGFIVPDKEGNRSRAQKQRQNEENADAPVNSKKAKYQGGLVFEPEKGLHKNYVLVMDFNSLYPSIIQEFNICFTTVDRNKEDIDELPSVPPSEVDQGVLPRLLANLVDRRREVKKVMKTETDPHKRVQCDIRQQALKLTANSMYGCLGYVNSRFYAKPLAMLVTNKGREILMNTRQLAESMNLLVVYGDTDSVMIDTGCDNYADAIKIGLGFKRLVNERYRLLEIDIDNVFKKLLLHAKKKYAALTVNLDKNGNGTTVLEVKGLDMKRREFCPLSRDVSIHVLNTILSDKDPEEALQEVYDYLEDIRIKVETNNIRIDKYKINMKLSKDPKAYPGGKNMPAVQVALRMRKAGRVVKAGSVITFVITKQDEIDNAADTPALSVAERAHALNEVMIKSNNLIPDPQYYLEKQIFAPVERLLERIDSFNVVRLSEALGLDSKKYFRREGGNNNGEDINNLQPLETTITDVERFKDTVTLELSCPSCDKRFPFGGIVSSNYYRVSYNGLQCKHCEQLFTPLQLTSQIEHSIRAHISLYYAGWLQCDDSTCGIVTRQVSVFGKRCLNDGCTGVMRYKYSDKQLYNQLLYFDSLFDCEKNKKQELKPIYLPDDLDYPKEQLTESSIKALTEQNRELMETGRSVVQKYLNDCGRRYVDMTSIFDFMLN

T2: wild-type GST-Mcm10 (Saccharomyces cerevisiae, UniProt P32354 1-571)
T2 sequence: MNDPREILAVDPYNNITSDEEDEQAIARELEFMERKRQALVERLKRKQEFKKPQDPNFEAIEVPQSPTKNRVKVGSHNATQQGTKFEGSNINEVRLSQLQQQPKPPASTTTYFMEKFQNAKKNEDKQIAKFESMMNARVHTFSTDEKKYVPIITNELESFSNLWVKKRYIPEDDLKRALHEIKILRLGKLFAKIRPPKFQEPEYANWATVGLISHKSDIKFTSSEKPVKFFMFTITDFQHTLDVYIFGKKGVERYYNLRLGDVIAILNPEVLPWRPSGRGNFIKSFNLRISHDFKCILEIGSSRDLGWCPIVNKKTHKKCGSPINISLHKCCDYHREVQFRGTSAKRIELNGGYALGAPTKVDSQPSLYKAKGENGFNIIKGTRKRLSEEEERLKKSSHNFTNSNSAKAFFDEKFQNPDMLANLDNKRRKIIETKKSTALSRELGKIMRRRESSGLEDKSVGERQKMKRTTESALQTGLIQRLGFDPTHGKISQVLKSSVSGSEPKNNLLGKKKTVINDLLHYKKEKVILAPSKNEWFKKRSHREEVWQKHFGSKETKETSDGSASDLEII

T3: GST-Cdc45 (budding yeast (S. cerevisiae), UniProt Q08032 1-650)
T3 sequence: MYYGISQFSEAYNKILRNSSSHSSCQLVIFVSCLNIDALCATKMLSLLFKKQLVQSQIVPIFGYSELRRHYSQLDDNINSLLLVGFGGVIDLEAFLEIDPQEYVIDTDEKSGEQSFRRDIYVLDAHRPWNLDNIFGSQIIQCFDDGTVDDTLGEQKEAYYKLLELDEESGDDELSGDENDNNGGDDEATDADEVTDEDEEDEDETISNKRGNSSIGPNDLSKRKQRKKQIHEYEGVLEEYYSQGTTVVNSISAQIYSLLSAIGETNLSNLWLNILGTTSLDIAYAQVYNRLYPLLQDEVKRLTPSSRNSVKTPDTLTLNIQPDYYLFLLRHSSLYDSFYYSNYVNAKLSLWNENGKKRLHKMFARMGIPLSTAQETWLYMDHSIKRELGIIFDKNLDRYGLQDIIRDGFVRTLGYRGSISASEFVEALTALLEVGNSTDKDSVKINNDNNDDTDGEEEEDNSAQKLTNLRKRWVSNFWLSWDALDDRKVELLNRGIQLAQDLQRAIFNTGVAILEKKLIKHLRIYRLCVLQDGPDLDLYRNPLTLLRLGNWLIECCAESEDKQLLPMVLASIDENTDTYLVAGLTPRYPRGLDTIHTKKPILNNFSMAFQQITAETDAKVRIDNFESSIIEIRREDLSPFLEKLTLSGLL

T4: GST-Dbf4 (budding yeast (S. cerevisiae), UniProt P32325 1-704)
T4 sequence: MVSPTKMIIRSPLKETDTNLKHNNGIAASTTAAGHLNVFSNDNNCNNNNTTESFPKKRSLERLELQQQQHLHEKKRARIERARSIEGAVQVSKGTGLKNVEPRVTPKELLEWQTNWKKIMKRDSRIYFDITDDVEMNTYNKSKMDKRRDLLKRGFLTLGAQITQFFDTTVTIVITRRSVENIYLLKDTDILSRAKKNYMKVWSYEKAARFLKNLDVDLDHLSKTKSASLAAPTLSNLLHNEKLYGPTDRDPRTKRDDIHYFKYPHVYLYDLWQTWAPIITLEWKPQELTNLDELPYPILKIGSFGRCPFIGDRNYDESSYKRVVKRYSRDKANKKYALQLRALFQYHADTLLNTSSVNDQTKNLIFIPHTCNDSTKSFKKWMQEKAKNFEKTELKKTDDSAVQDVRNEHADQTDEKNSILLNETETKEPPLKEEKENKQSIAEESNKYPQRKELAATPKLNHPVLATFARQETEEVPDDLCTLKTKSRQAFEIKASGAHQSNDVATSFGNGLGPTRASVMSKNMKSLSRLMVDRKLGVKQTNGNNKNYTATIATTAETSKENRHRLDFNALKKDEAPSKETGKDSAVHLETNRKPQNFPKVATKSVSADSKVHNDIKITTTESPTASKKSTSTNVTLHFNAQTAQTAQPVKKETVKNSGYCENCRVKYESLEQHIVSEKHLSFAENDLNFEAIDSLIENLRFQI

T5: GST-Mcm10 (wild type) (Saccharomyces cerevisiae, UniProt P32354 1-571)
T5 sequence: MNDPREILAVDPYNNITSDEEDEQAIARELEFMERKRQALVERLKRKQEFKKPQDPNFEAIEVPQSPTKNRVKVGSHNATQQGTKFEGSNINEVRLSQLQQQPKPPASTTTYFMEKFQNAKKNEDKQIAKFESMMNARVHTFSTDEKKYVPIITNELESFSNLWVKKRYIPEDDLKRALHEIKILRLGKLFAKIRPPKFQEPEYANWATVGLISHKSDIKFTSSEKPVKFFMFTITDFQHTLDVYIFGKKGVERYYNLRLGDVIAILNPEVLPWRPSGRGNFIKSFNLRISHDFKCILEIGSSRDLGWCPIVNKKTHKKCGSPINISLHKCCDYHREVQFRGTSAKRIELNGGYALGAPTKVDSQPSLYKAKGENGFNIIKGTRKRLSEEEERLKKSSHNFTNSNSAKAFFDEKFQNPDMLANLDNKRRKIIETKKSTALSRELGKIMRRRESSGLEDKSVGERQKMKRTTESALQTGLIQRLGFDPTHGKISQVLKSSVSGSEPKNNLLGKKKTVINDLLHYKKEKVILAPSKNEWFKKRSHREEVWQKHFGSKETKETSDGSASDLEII

B1: radiolabeled wild-type PKA-Mcm10 (natural protein)
chain: MNDPREILAVDPYNNITSDEEDEQAIARELEFMERKRQALVERLKRKQEFKKPQDPNFEAIEVPQSPTKNRVKVGSHNATQQGTKFEGSNINEVRLSQLQQQPKPPASTTTYFMEKFQNAKKNEDKQIAKFESMMNARVHTFSTDEKKYVPIITNELESFSNLWVKKRYIPEDDLKRALHEIKILRLGKLFAKIRPPKFQEPEYANWATVGLISHKSDIKFTSSEKPVKFFMFTITDFQHTLDVYIFGKKGVERYYNLRLGDVIAILNPEVLPWRPSGRGNFIKSFNLRISHDFKCILEIGSSRDLGWCPIVNKKTHKKCGSPINISLHKCCDYHREVQFRGTSAKRIELNGGYALGAPTKVDSQPSLYKAKGENGFNIIKGTRKRLSEEEERLKKSSHNFTNSNSAKAFFDEKFQNPDMLANLDNKRRKIIETKKSTALSRELGKIMRRRESSGLEDKSVGERQKMKRTTESALQTGLIQRLGFDPTHGKISQVLKSSVSGSEPKNNLLGKKKTVINDLLHYKKEKVILAPSKNEWFKKRSHREEVWQKHFGSKETKETSDGSASDLEII
modifications: 32P label put on the PKA tag by protein kinase A with [gamma-32P]-ATP
B2: radiolabeled PKA-Mcm10-4A (Mcm10-I26A-L30A-R37A-L40A) (natural protein)
chain: MNDPREILAVDPYNNITSDEEDEQAAAREAEFMERKAQAAVERLKRKQEFKKPQDPNFEAIEVPQSPTKNRVKVGSHNATQQGTKFEGSNINEVRLSQLQQQPKPPASTTTYFMEKFQNAKKNEDKQIAKFESMMNARVHTFSTDEKKYVPIITNELESFSNLWVKKRYIPEDDLKRALHEIKILRLGKLFAKIRPPKFQEPEYANWATVGLISHKSDIKFTSSEKPVKFFMFTITDFQHTLDVYIFGKKGVERYYNLRLGDVIAILNPEVLPWRPSGRGNFIKSFNLRISHDFKCILEIGSSRDLGWCPIVNKKTHKKCGSPINISLHKCCDYHREVQFRGTSAKRIELNGGYALGAPTKVDSQPSLYKAKGENGFNIIKGTRKRLSEEEERLKKSSHNFTNSNSAKAFFDEKFQNPDMLANLDNKRRKIIETKKSTALSRELGKIMRRRESSGLEDKSVGERQKMKRTTESALQTGLIQRLGFDPTHGKISQVLKSSVSGSEPKNNLLGKKKTVINDLLHYKKEKVILAPSKNEWFKKRSHREEVWQKHFGSKETKETSDGSASDLEII
modifications: 32P label put on the PKA tag by protein kinase A with [gamma-32P]-ATP
B3: GST-Mcm10-4A (Mcm10-I26A-L30A-R37A-L40A) (natural protein)
chain: MNDPREILAVDPYNNITSDEEDEQAAAREAEFMERKAQAAVERLKRKQEFKKPQDPNFEAIEVPQSPTKNRVKVGSHNATQQGTKFEGSNINEVRLSQLQQQPKPPASTTTYFMEKFQNAKKNEDKQIAKFESMMNARVHTFSTDEKKYVPIITNELESFSNLWVKKRYIPEDDLKRALHEIKILRLGKLFAKIRPPKFQEPEYANWATVGLISHKSDIKFTSSEKPVKFFMFTITDFQHTLDVYIFGKKGVERYYNLRLGDVIAILNPEVLPWRPSGRGNFIKSFNLRISHDFKCILEIGSSRDLGWCPIVNKKTHKKCGSPINISLHKCCDYHREVQFRGTSAKRIELNGGYALGAPTKVDSQPSLYKAKGENGFNIIKGTRKRLSEEEERLKKSSHNFTNSNSAKAFFDEKFQNPDMLANLDNKRRKIIETKKSTALSRELGKIMRRRESSGLEDKSVGERQKMKRTTESALQTGLIQRLGFDPTHGKISQVLKSSVSGSEPKNNLLGKKKTVINDLLHYKKEKVILAPSKNEWFKKRSHREEVWQKHFGSKETKETSDGSASDLEII
B4: 80mer ssDNA (80dT) (ssDNA)
DNA: TTTTTTTTTTTTTTTTTTTTTTTTTTTTTTTTTTTTTTTTTTTTTTTTTTTTTTTTTTTTTTTTTTTTTTTTTTTTTTTT
B5: blunt dsDNA (called 30mer) (dsDNA)
DNA 1: ATGTCCTAGCAAGCCAGAATTCGGCAGCGTC
DNA 2: GACGCTGCCGAATTCTGGCTTGCTAGGACAT

Tests used:
GST-p180 = molecular target: T1, GST-p180; test: pull-down
wild-type GST-Mcm10 = molecular target: T2, wild-type GST-Mcm10; test: pull-down
GST-Cdc45 = molecular target: T3, GST-Cdc45; test: pull-down
GST-Dbf4 = molecular target: T4, GST-Dbf4; test: pull-down
[1] = molecular target: radiolabeled PKA-Mcm2–7 complex (budding yeast (S. cerevisiae), UniProt P29469;P24279;P30665;P29496;P53091;P38132); test: pull-down
GST-Mcm10 (wild type) = molecular target: T5, GST-Mcm10 (wild type); test: GST pull-down

| Binder | binding result (GST-p180) | binding result (GST-Mcm10 (wild type)) | other results |
| --- | --- | --- | --- |
| B1 | binds | – | binding result (wild-type GST-Mcm10): binds |
| B2 | binds | – | binding result (GST-Cdc45): binds; binding result (GST-Dbf4): binds |
| B3 | – | – | binding result [1]: binds |
| B4 | – | binds | – |
| B5 | – | binds | – |
